In general, Kd refers to the equilibrium constant for the complex coming apart. As usually defined, the koff is the rate constant with which the complex falls apart. Broadly, the kon is the second-order rate constant of association.

Residue numbers refer to the chain shown, from its start. Several values for one entry are separate records, joined by “and”; a condition that tells them apart may be missing. Equal entries are not always repeated.

Experiment [1] concerns the target T1, human CLL-1 on cells (endogenous on HL-60, EOL-1 and other AML cell lines and CD14+ monocytes); recombinant on … (human, UniProt Q5QGZ9 1-265).
T1 construct: also called 293AD/huCLL-1; tumor-derived CLL-1
T1 sequence: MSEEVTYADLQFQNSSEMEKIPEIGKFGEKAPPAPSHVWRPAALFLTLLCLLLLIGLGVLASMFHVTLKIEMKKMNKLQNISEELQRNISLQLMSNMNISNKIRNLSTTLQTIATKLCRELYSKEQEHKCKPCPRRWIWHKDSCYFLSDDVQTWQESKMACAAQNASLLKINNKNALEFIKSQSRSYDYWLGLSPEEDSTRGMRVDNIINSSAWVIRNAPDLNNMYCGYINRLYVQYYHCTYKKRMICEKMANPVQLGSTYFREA
As to the kind of experiment: Scatchard, EOL-1 cells.

For experiment [2], the target named is T2, recombinant human CLL-1 extracellular domain (ECD, amino acids 65-265) fused to an N-terminal Flag (human, UniProt Q5QGZ9 65-265).
T2 construct: The construct and the K244Q SNP are stated for the immunogen; they are not written as a piece; also called huCLL-1-Flag; huCLL-1
T2 chain: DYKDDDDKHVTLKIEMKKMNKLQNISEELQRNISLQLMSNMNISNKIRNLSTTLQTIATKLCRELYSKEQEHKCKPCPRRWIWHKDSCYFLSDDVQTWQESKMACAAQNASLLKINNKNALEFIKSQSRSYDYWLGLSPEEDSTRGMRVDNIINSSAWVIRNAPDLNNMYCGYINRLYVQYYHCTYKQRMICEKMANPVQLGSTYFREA
As to the kind of experiment: affinity column of the TDB summary table (rounded Biacore KD of the second the 8th table / the 4th table tables).

Experiment [3] concerns the target T3, recombinant cynomolgus CLL-1 extracellular domain (ECD, amino acids 65-265) fused to an N-terminal Flag (cynomolgus monkey).
T3 construct: Construct stated for the immunogen; also called CynoCLL-1 Flag; cynoCLL-1
T3 chain: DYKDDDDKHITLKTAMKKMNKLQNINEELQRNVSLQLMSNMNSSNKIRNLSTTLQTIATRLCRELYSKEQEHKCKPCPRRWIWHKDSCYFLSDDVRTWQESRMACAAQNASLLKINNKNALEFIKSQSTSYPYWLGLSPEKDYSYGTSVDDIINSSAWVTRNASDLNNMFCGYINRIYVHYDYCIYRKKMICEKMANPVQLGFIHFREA
Described as above.

Experiment [4] deals with T2, recombinant human CLL-1 extracellular …. Put plainly: SPR (Biacore T200), IgG captured by anti-human Fc, CLL-1 as analyte. On the technique in general: Surface plasmon resonance follows binding to a sensor surface in real time, without labels.
Experiment [5] deals with T3, recombinant cynomolgus CLL-1 …. Described as above.
The target in experiment [6] is T2, recombinant human CLL-1 extracellular …. The description is as above.
The target of experiment [7] is T3, recombinant cynomolgus CLL-1 …. The description is as above.
In experiment [8] the target is T1, human CLL-1 on cells (endogenous on …). Put plainly: Scatchard, HL-60 cells. The protocol: (§1) Competition assay mixtures of 50 μL volume containing a fixed concentration of [1¹²⁵] labeled antibody and decreasing concentrations of serially diluted, unlabeled antibody were placed into 96-well plates. HEK293AD cells stably expressing recombinant hu or cynoCLL-1 or HL-60 tumor cells expressing endogenous CLL-1 were cultured in growth media at 37° C. in 5% CO₂. Cells were detached from the flask using Sigma Cell Dissociation Solution and were washed with binding buffer, which consisted of Dulbecco's Modified Eagle Medium (DMEM) with 1% bovine serum albumin (BSA), […] and 0.1% sodium azide. The washed cells were added to the 96 well plates at a density of 100,000 cells in 0.2 mL of binding buffer. […] The final concentration of the unlabeled antibody in the competition assay ranged from 1000 nM through ten 2-fold dilution steps to a 0 nM buffer-only assay. Competition assays were carried out in triplicate. Competition assays were incubated for 2 hours at room temperature. […] The filters were counted on a Wallac Wizard 1470 gamma counter (PerkinElmer Life and Analytical Sciences Inc.; Wellesley, Mass.). The binding data was evaluated using NewLigand software (Genentech), which uses the fitting algorithm of Munson and Robard to determine the binding affinity of the antibody (Munson and Robard 1980).

Experiment [9] has the same target. As to the kind of experiment: Scatchard, 293AD/huCLL-1 cells. The protocol:
Competition assay mixtures of 50 μL volume containing a fixed concentration of [1¹²⁵] labeled antibody and decreasing concentrations of serially diluted, unlabeled antibody were placed into 96-well plates. HEK293AD cells stably expressing recombinant hu or cynoCLL-1 or HL-60 tumor cells expressing endogenous CLL-1 were cultured in growth media at 37° C. in 5% CO₂. Cells were detached from the flask using Sigma Cell Dissociation Solution and were washed with binding buffer, which consisted of Dulbecco's Modified Eagle Medium (DMEM) with 1% bovine serum albumin (BSA), […] and 0.1% sodium azide. The washed cells were added to the 96 well plates at a density of 100,000 cells in 0.2 mL of binding buffer. […] The final concentration of the unlabeled antibody in the competition assay ranged from 1000 nM through ten 2-fold dilution steps to a 0 nM buffer-only assay. Competition assays were carried out in triplicate. Competition assays were incubated for 2 hours at room temperature. After the 2-hour incubation, the competition assays were transferred to a Millipore Multiscreen filter plate (Billerica, Mass.) and washed 4 times with binding buffer to separate the free from bound [I¹²⁵] labeled antibody. The filters were counted on a Wallac Wizard 1470 gamma counter (PerkinElmer Life and Analytical Sciences Inc.; Wellesley, Mass.). The binding data was evaluated using NewLigand software (Genentech), which uses the fitting algorithm of Munson and Robard to determine the binding affinity of the antibody (Munson and Robard 1980).

In experiment [10] the target is T4, cynomolgus CLL-1 on cells (recombinant on HEK293AD cells) (cynomolgus monkey).
T4 construct: also called 293AD/cynoCLL-1; 293AD/cynoCLL1
T4 chain: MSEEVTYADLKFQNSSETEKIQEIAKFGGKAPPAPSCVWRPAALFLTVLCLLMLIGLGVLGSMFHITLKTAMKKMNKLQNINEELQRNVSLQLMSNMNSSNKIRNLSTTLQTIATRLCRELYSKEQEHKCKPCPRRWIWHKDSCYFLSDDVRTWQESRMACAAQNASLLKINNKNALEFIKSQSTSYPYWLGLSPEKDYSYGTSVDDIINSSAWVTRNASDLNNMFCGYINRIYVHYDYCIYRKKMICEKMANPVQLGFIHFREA
Put plainly: Scatchard, 293AD/cynoCLL1 cells. The protocol: as §1

Experiment [11] deals with T2, recombinant human CLL-1 extracellular …. As to the kind of experiment: SPR (Biacore T200), IgG captured by anti-human Fc, human CLL-1 as analyte. The protocol:
The binding affinity of the antibodies in this section was determined by BIAcore™ T200 Format. Briefly, BIAcore™ research grade CM5 chips were activated with 1-ethyl-3-(3-dimethylaminopropyl) carbodiimide (EDC) and N-hydroxysuccinimide (NHS) reagents according to the supplier's instructions. Goat anti-human Fc IgGs were coupled to the chips to achieve approximately 10,000 response units (RU) in each flow cell. Unreacted coupling groups were blocked with 1M ethanolamine. For kinetics measurements, antibodies were captured to achieve approximately 300 RU. Three-fold serial dilutions of human CLL-1 was injected in HBS-P buffer (0.01M HEPES pH7.4, 0.15M NaCl, 0.005% surfactant P20) at 25° C. with a flow rate of 30 μl/min. Association rates (kon) and dissociation rates (koff) were calculated using a 1:1 Langmuir binding model (BIAcore™ T200 Evaluation Software version 2.0). The equilibrium dissociation constant (Kd) was calculated as the ratio koff/kon.

For experiment [12] the target is unchanged. Put plainly: SPR (Biacore), chimeric IgG captured by anti-human IgG, CLL-1 as analyte. The protocol:
(§2) The chimeric anti-CLL-1 human IgG were captured by mouse anti-human IgG coated on the CM5 sensor chip. […] Association rates (kon) and dissociation rates (koff) were calculated using a simple one-to-one Langmuir binding model. The equilibrium dissociation constant (KD) was calculated as the ratio koff/kon.

For experiment [13], the target named is T3, recombinant cynomolgus CLL-1 …. The experiment is described as above. The method, then:
as §2

B1: 6E7.L4H1e (antibody, V domains shown)
VH: EVQLVQSGAEVKKPGASVKVSCKASGYSFTDYYMHWVRQAPGQGLEWIGRINPYNGAAFYSQNFKDRVTLTVDTSTSTAYLELSSLRSEDTAVYYCAIERGADLEGYAMDYWGQGTLVTVSS
VL: DIQMTQSPSSLSASVGDRVTITCRASQSVSTSSYNYMHWYQQKPGKPPKLLIKYASNLESGVPSRFSGSGSGTDFTLTISSLQPEDFATYYCQHSWEIPLTFGQGTKVEIK
notes: humanized, assessed in the form of an IgG; also called humanized 6E7.L4H1e; h6E7
Consider B1, for which the Kd in [1] was 0.25 nM and 0.29 nM; in experiment [2], 1.1 nM; in experiment [3], 2.2 nM; in [4] it was 1.08 nM; in experiment [5], 2.26 nM; in experiment [6], 0.622 nM. In addition, the Kd in [7] was 0.317 nM; in [8] it was 0.6 nM and 0.34 nM; in experiment [9], 0.68 nM and 0.35 nM. Moreover, the koff in experiment [4] stood at 0.000984 s⁻¹; in experiment [5], 0.00181 s⁻¹; in [6], 0.000512 s⁻¹; in experiment [7], 0.000234 s⁻¹. Moreover, the kon was found to be 910000 M⁻¹ s⁻¹ in [4], 804000 M⁻¹ s⁻¹ in [5], 824000 M⁻¹ s⁻¹ in experiment [6] and 739000 M⁻¹ s⁻¹ in [7].

B2: 6E7.L4H1eA54 (antibody, V domains shown)
VH: B1 VH with N55A
VL: B1 VL
notes: humanized IgG; also called 6E7.L4H1eN54A; h6E7A
For B2, the Kd worked out at 0.32 nM in experiment [1]; 3.08 nM in [4]; 3.14 nM in experiment [5]; 0.9 nM in experiment [10]; 0.64 nM in experiment [8]; 0.89 nM in [9].

B3: 6E7.L4H1eD54 (antibody, V domains shown)
VH: B1 VH with N55D
VL: B1 VL
notes: IgG; also called h6E7D; H6E7.L4H1D54
Consider B3, for which the Kd was 113 nM in experiment [2], 48.7 nM in [3], 113 nM in experiment [4] and 48.7 nM in experiment [5]. Also, the koff is 0.0344 s⁻¹ in [4] and 0.00869 s⁻¹ in experiment [5]. In addition, the kon worked out at 304000 M⁻¹ s⁻¹ in [4] and 178000 M⁻¹ s⁻¹ in [5].

B4: 21C9.L2H3 (antibody, V domains shown)
VH: EVQLVQSGAEVKKPGASVKVSCKASGYTFTDYYLDWVRQAPGQGLEWIGRVNPYNGGTIYNQKFKGRVTLTRDTSTSTAYLELSSLRSEDTAVYYCARDHYRYDPLLDYWGQGTLVTVSS
VL: DIQMTQSPSSLSASVGDRVTITCKASQDVSTAVAWFQQKPGKAPKLLIYSPSYRYTGVPSRFSGSGSGTDFTLTISSLQPEDFATYYCQQLYSTPYTFGQGTKVEIK
notes: humanized, assessed in the form of an IgG; also called humanized 21C9.L2H3; h21C9
Consider B4, for which the Kd in experiment [1] was determined as 0.74 nM; in [11] it was 9.79 nM; in experiment [4] it was 15.1 nM; in [5], 9.3 nM; in [10], 2.4 nM; in experiment [6] it was 11.7 nM. Moreover, the Kd in experiment [7] stood at 9.47 nM; in experiment [9] it was 3.6 nM.

B5: ch28H12 (antibody, V domains shown)
VH: QVQLQQSGAELVKPGASVKLSCTASGFNIKDTYMHWVKQRPEQGLEWIGRIDPANGDTDYDPKFQGKATVTADTSSNTAYLQLSSLTSEDTAVYYCTISGPPYYVMDYWGQGTSVTVSS
VL: DIQMTQSPASLAVSLGQRATISCRASQSVSSSSYSYMHWYQQKPGQPPKLLIKYASNLESGVPARFSGRGSGTDFTLNIHPVEEEDTATYYCQHSWEIPYTFGGGTRLEIK
notes: chimeric version of m28H12, human IgG; also called chimeric 28H12
On to B5, for which the Kd came to 18 nM in experiment [2], 0.3 nM in experiment [3], 18 nM in [12] and 0.3 nM in [13]. Moreover, the figures for the koff in [12] and in experiment [13] were 0.0095 s⁻¹ and 0.00023 s⁻¹, respectively. For the same molecule, the results for the kon in experiment [12] and in experiment [13] were 500000 M⁻¹ s⁻¹ and 670000 M⁻¹ s⁻¹, respectively.

B6: ch20B1 (antibody, V domains shown)
VH: EVQLQQSGPELVKPGALVKISCKASGYTFTSYDINWLKQRPGQGLEWIGWIYPGDGTTEYNERFKGKATLTADKSSSTAYLQLSSLTSENSAVYFCARSYDYDYAMDYWGQGTSVTVSS
VL: DIVLTQSPAIMSASPGEKVTMTCSASSSISYMYWYQQKPGTSPKRWIYDTSKLASGVPARFSGSGSGTSYSLTISSMEAEDAATYYCHQRSSWTFGGGTKLEIK
notes: chimeric version of m20B1, human IgG; also called chimeric 20B1; 2061 [sic]
For B6, the Kd stood at 4.5 nM in experiment [2], 6.1 nM in [3], 4.5 nM in experiment [12] and 6.1 nM in experiment [13]. Besides, the koff in [12] is 0.001 s⁻¹; in [13] it was 0.0012 s⁻¹. The on-rate (kon) in experiment [12] was 220000 M⁻¹ s⁻¹; in [13], 190000 M⁻¹ s⁻¹.

The values are drawn from patent publication US20200148774A1 (Genentech, published 2020).
